Results: patent US20180312587A1 (ADURO BIOTECH HOLDINGS EUROPE B V, published 2018)

Tests used:
human SIRPα variant 2 = target: T1, human SIRPα variant 2 (human, UniProt P78324 31-504); experiment: flow cytometry, blockade of DyLight488-hCD47/Fc binding to THP-1 cells
T1 construct: full length ORF on transfected CHO-K1 cells; also called hSIRPαV2; SIRPαV2
Experimental: For this purpose, THP-1 (ATCC TIB-202) and U-937 (ATCC CRL-1593.2) monocyte cell lines were used as the source of hSIRPα in the assay. THP-1 and U-937 cells were seeded in 96-well round bottomed tissue culture plates and incubated for 45 minutes with FcR Blocking Reagent (Miltenyi Biotec) and hSIRPα.50A antibody (200 μg/mL and dilutions thereof) in PBS/1% BSA at 4° C. […] After this labeling procedure, cells were washed two times, resuspended in PBS/1% BSA containing 0.1 μg/mL DAPI (BioLegend), and analysed by flow cytometry on the FACSCanto II (BD Biosciences). Data were processed and analysed with FlowJo V10 software (FlowJo, LLC).
As depicted in FIG. 4 and the following Table 11, binding of recombinant hCD47 fused to an Fc domain of human IgG1 was monitored in the presence of increasing amounts of the hSIRPα.50A antibody. Antibody hSIRPα.50A blocked the hSIRPα/hCD47 interaction, using the flow cytometry-based method described above. […] IC50 values represent the concentration at which half of the inhibition is observed.

hSIRP-VβC1γC2β = target: T2, hSIRP-VβC1γC2β (human, UniProt O00241 30-398); experiment: CELISA, CHO-K1 transfectants, domain exchange study; nd = not detected
T2 chain: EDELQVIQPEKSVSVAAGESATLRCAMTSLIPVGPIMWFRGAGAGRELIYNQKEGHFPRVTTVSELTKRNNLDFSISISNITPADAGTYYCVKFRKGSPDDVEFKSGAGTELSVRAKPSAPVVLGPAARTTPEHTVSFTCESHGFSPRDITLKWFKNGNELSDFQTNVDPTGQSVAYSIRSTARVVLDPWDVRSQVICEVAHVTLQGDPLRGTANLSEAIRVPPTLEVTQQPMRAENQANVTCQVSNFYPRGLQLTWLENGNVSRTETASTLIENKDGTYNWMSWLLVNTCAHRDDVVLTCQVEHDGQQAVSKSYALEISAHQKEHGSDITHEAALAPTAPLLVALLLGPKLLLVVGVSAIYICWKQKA
Description: (§1) Based on the fold of SIRPα/β1/γ, the extracellular region can be subdivided into three separate domains: the Ig-like (immunoglobulin-like) V-type (IgV), Ig-like C1-type (IgC1), and Ig-like C2-type (IgC2) domain. The IgV domain is also known as the ligand-binding N-terminal domain of SIRPα and SIRPγ (which binds to CD47). The human SIRPβ1/γ mutants were designed based on the full length hSIRPβ1 sequence (SEQ ID NO: 38) and each individual Ig-like domain was substituted for the equivalent domain of human SIRPγ (SEQ ID NO: 40). […] Binding of hSIRPα.40A to the exchange mutants was tested using CELISA. To this end, CHO-K1 cells were transiently transfected, using Lipofectamine 2000, with the pCI-neo vectors encoding hSIRPαV1, hSIRPαV2, hSIRPβ1, hSIRP-VγC1βC2β, hSIRP-VβC1γC2β, and hSIRP-VβC1βC2γ, respectively. The transfected cells were cultured at 37° C., 5% CO₂ and 95% humidity in medium (DMEM-F12 (Gibco) with 5% New Born Calf serum (Biowest) and Pen/Strep (Gibco)) until confluent. Subsequently, cells were trypsinized and seeded in 96-well flat-bottom tissue culture plates and cultured at 37° C., 5% CO₂ and 95% humidity in culture medium until confluent. […] Reactions were stopped with 0.5 M H₂SO₄ and absorbances were read at 450 and 610 nm.

hSIRP-VβC1βC2γ = target: T3, hSIRP-VβC1βC2γ (human, UniProt O00241 30-398); experiment: as above
T3 chain: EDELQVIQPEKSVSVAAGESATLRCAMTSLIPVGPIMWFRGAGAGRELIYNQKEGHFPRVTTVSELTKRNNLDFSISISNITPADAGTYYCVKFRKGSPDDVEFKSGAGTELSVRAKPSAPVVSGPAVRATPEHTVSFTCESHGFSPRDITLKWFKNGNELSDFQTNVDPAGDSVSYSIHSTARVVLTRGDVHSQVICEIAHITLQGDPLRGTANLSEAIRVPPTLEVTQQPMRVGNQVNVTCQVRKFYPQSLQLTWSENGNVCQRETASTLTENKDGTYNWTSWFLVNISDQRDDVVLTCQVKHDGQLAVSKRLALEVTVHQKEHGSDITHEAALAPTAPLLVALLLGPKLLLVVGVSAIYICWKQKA
Description: as §1

T1 sequence (P78324 other isoform, or with tags, fused parts or gaps mutant limits assumed): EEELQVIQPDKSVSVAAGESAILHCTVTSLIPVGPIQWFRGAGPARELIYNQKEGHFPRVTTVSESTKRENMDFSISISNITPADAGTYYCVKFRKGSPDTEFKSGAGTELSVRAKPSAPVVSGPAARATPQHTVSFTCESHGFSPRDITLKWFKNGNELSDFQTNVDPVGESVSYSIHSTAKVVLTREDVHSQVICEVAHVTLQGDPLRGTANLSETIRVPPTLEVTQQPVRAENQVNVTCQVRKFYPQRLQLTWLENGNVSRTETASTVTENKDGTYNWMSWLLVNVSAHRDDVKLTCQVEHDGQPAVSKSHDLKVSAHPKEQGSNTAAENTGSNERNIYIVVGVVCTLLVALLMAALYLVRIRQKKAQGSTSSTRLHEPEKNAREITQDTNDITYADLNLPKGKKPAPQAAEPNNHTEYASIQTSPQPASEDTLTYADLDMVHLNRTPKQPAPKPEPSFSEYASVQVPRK

B1: hSIRPα.50A (antibody, V domains shown)
VH: QVQLQQSGPELVKPGASVRISCKASGFTFTNYYIHWVKQRPGQGLEWIGWIYPGNVNTKYNEKFKAKATLTADKSSTTAYMQLSSLASEDSAVYFCARPTIIATDFDVWGAGTTVTVSS
VL: DIVMTQSHKFMSTSVGDRVNITCKASQGVGTAVGWYQQKPGQSPRLLIYWASTRHTGVPDRFTGSGSGTDFSLAISNVQSEDLADYFCQQYSTYPFTFGGGTNLEIK
notes: light chain constant domain not tied; also called mouse hSIRPα.50A; hSIRPα.50A.mIgG1
IC50 (human SIRPα variant 2): 4.61 nM | binding result (hSIRP-VβC1γC2β): no binding | binding result (hSIRP-VβC1βC2γ): no binding
